*1 amine or outer side, *2 acyl side, *3 side chain or, on linkers, in order; H or OH if unused. Side-chain parts run from the residue outwards. The star is where a group is joined. C18 diacid = O=C(O)CCCCCCCCCCCCCCCCC(=O)*; γGlu = O=C(O)[C@H](CCC(=O)[*:2])N[*:1]; Isovaleryl = CC(C)CC(=O)*; AEEA = NCCOCCOCC(=O)O
T1: human neuropeptide Y2 receptor (human, UniProt P49146 1-381)
T1 construct: whole, on cells; also called hNPY2 receptor; hNPY2-R
T1 sequence (looked up): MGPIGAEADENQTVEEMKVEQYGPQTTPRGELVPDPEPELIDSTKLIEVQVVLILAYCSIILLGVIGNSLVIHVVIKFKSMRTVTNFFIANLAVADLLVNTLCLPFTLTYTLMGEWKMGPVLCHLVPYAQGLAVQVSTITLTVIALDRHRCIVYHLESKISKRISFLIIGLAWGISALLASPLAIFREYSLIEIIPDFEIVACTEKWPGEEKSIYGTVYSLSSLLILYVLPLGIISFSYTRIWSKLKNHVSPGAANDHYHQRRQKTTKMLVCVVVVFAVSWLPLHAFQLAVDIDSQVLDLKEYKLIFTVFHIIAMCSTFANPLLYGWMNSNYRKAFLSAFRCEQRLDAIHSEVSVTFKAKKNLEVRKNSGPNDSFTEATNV

B1: Compound 124 (peptide)
peptide: Isovaleryl-APEK([AEEA-AEEA-γGlu-C18 diacid])PEEDAAPEEIQRYYVSLRHYYNWLTRQRY-NH2
SMILES: CC[C@H](C)[C@H](NC(=O)[C@H](CCC(=O)O)NC(=O)[C@H](CCC(=O)O)NC(=O)[C@@H]1CCCN1C(=O)[C@H](C)NC(=O)[C@H](C)NC(=O)[C@H](CC(=O)O)NC(=O)[C@H](CCC(=O)O)NC(=O)[C@H](CCC(=O)O)NC(=O)[C@@H]1CCCN1C(=O)[C@H](CCCCNC(=O)COCCOCCNC(=O)COCCOCCNC(=O)CC[C@H](NC(=O)CCCCCCCCCCCCCCCCC(=O)O)C(=O)O)NC(=O)[C@H](CCC(=O)O)NC(=O)[C@@H]1CCCN1C(=O)[C@H](C)NC(=O)CC(C)C)C(=O)N[C@@H](CCC(N)=O)C(=O)N[C@@H](CCCNC(=N)N)C(=O)N[C@@H](Cc1ccc(O)cc1)C(=O)N[C@@H](Cc1ccc(O)cc1)C(=O)N[C@H](C(=O)N[C@@H](CO)C(=O)N[C@@H](CC(C)C)C(=O)N[C@@H](CCCNC(=N)N)C(=O)N[C@@H](Cc1c[nH]cn1)C(=O)N[C@@H](Cc1ccc(O)cc1)C(=O)N[C@@H](Cc1ccc(O)cc1)C(=O)N[C@@H](CC(N)=O)C(=O)N[C@@H](Cc1c[nH]c2ccccc12)C(=O)N[C@@H](CC(C)C)C(=O)N[C@H](C(=O)N[C@@H](CCCNC(=N)N)C(=O)N[C@@H](CCC(N)=O)C(=O)N[C@@H](CCCNC(=N)N)C(=O)N[C@@H](Cc1ccc(O)cc1)C(N)=O)[C@@H](C)O)C(C)C
B2: Compound 133 (peptide)
peptide: Isovaleryl-APEK([AEEA-AEEA-γGlu-C18 diacid])PEEDASPEEVQRYYVELRHYYNWLTRQRY-NH2
SMILES: CC(C)CC(=O)N[C@@H](C)C(=O)N1CCC[C@H]1C(=O)N[C@@H](CCC(=O)O)C(=O)N[C@@H](CCCCNC(=O)COCCOCCNC(=O)COCCOCCNC(=O)CC[C@H](NC(=O)CCCCCCCCCCCCCCCCC(=O)O)C(=O)O)C(=O)N1CCC[C@H]1C(=O)N[C@@H](CCC(=O)O)C(=O)N[C@@H](CCC(=O)O)C(=O)N[C@@H](CC(=O)O)C(=O)N[C@@H](C)C(=O)N[C@@H](CO)C(=O)N1CCC[C@H]1C(=O)N[C@@H](CCC(=O)O)C(=O)N[C@@H](CCC(=O)O)C(=O)N[C@H](C(=O)N[C@@H](CCC(N)=O)C(=O)N[C@@H](CCCNC(=N)N)C(=O)N[C@@H](Cc1ccc(O)cc1)C(=O)N[C@@H](Cc1ccc(O)cc1)C(=O)N[C@H](C(=O)N[C@@H](CCC(=O)O)C(=O)N[C@@H](CC(C)C)C(=O)N[C@@H](CCCNC(=N)N)C(=O)N[C@@H](Cc1c[nH]cn1)C(=O)N[C@@H](Cc1ccc(O)cc1)C(=O)N[C@@H](Cc1ccc(O)cc1)C(=O)N[C@@H](CC(N)=O)C(=O)N[C@@H](Cc1c[nH]c2ccccc12)C(=O)N[C@@H](CC(C)C)C(=O)N[C@H](C(=O)N[C@@H](CCCNC(=N)N)C(=O)N[C@@H](CCC(N)=O)C(=O)N[C@@H](CCCNC(=N)N)C(=O)N[C@@H](Cc1ccc(O)cc1)C(N)=O)[C@@H](C)O)C(C)C)C(C)C
B3: Compound 132 (peptide)
peptide: Isovaleryl-APEK([AEEA-AEEA-γGlu-C18 diacid])PEEDASPEELQKYYVTLRHYYNWLTRQRY-NH2
SMILES: CC(C)CC(=O)N[C@@H](C)C(=O)N1CCC[C@H]1C(=O)N[C@@H](CCC(=O)O)C(=O)N[C@@H](CCCCNC(=O)COCCOCCNC(=O)COCCOCCNC(=O)CC[C@H](NC(=O)CCCCCCCCCCCCCCCCC(=O)O)C(=O)O)C(=O)N1CCC[C@H]1C(=O)N[C@@H](CCC(=O)O)C(=O)N[C@@H](CCC(=O)O)C(=O)N[C@@H](CC(=O)O)C(=O)N[C@@H](C)C(=O)N[C@@H](CO)C(=O)N1CCC[C@H]1C(=O)N[C@@H](CCC(=O)O)C(=O)N[C@@H](CCC(=O)O)C(=O)N[C@@H](CC(C)C)C(=O)N[C@@H](CCC(N)=O)C(=O)N[C@@H](CCCCN)C(=O)N[C@@H](Cc1ccc(O)cc1)C(=O)N[C@@H](Cc1ccc(O)cc1)C(=O)N[C@H](C(=O)N[C@H](C(=O)N[C@@H](CC(C)C)C(=O)N[C@@H](CCCNC(=N)N)C(=O)N[C@@H](Cc1c[nH]cn1)C(=O)N[C@@H](Cc1ccc(O)cc1)C(=O)N[C@@H](Cc1ccc(O)cc1)C(=O)N[C@@H](CC(N)=O)C(=O)N[C@@H](Cc1c[nH]c2ccccc12)C(=O)N[C@@H](CC(C)C)C(=O)N[C@H](C(=O)N[C@@H](CCCNC(=N)N)C(=O)N[C@@H](CCC(N)=O)C(=O)N[C@@H](CCCNC(=N)N)C(=O)N[C@@H](Cc1ccc(O)cc1)C(N)=O)[C@@H](C)O)[C@@H](C)O)C(C)C
B4: Compound 130 (peptide)
peptide: Isovaleryl-APEK([AEEA-AEEA-γGlu-C18 diacid])PEEDTSAEELQRYYVSLRHYYNWLTRQRY-NH2
SMILES: CC(C)CC(=O)N[C@@H](C)C(=O)N1CCC[C@H]1C(=O)N[C@@H](CCC(=O)O)C(=O)N[C@@H](CCCCNC(=O)COCCOCCNC(=O)COCCOCCNC(=O)CC[C@H](NC(=O)CCCCCCCCCCCCCCCCC(=O)O)C(=O)O)C(=O)N1CCC[C@H]1C(=O)N[C@@H](CCC(=O)O)C(=O)N[C@@H](CCC(=O)O)C(=O)N[C@@H](CC(=O)O)C(=O)N[C@H](C(=O)N[C@@H](CO)C(=O)N[C@@H](C)C(=O)N[C@@H](CCC(=O)O)C(=O)N[C@@H](CCC(=O)O)C(=O)N[C@@H](CC(C)C)C(=O)N[C@@H](CCC(N)=O)C(=O)N[C@@H](CCCNC(=N)N)C(=O)N[C@@H](Cc1ccc(O)cc1)C(=O)N[C@@H](Cc1ccc(O)cc1)C(=O)N[C@H](C(=O)N[C@@H](CO)C(=O)N[C@@H](CC(C)C)C(=O)N[C@@H](CCCNC(=N)N)C(=O)N[C@@H](Cc1c[nH]cn1)C(=O)N[C@@H](Cc1ccc(O)cc1)C(=O)N[C@@H](Cc1ccc(O)cc1)C(=O)N[C@@H](CC(N)=O)C(=O)N[C@@H](Cc1c[nH]c2ccccc12)C(=O)N[C@@H](CC(C)C)C(=O)N[C@H](C(=O)N[C@@H](CCCNC(=N)N)C(=O)N[C@@H](CCC(N)=O)C(=O)N[C@@H](CCCNC(=N)N)C(=O)N[C@@H](Cc1ccc(O)cc1)C(N)=O)[C@@H](C)O)C(C)C)[C@@H](C)O
B5: Compound 126 (peptide)
peptide: Isovaleryl-APAK([AEEA-AEEA-γGlu-C18 diacid])PEEDSSPEELQRYYVSLRHYYNWLTRQRY-NH2
SMILES: CC(C)CC(=O)N[C@@H](C)C(=O)N1CCC[C@H]1C(=O)N[C@@H](C)C(=O)N[C@@H](CCCCNC(=O)COCCOCCNC(=O)COCCOCCNC(=O)CC[C@H](NC(=O)CCCCCCCCCCCCCCCCC(=O)O)C(=O)O)C(=O)N1CCC[C@H]1C(=O)N[C@@H](CCC(=O)O)C(=O)N[C@@H](CCC(=O)O)C(=O)N[C@@H](CC(=O)O)C(=O)N[C@@H](CO)C(=O)N[C@@H](CO)C(=O)N1CCC[C@H]1C(=O)N[C@@H](CCC(=O)O)C(=O)N[C@@H](CCC(=O)O)C(=O)N[C@@H](CC(C)C)C(=O)N[C@@H](CCC(N)=O)C(=O)N[C@@H](CCCNC(=N)N)C(=O)N[C@@H](Cc1ccc(O)cc1)C(=O)N[C@@H](Cc1ccc(O)cc1)C(=O)N[C@H](C(=O)N[C@@H](CO)C(=O)N[C@@H](CC(C)C)C(=O)N[C@@H](CCCNC(=N)N)C(=O)N[C@@H](Cc1c[nH]cn1)C(=O)N[C@@H](Cc1ccc(O)cc1)C(=O)N[C@@H](Cc1ccc(O)cc1)C(=O)N[C@@H](CC(N)=O)C(=O)N[C@@H](Cc1c[nH]c2ccccc12)C(=O)N[C@@H](CC(C)C)C(=O)N[C@H](C(=O)N[C@@H](CCCNC(=N)N)C(=O)N[C@@H](CCC(N)=O)C(=O)N[C@@H](CCCNC(=N)N)C(=O)N[C@@H](Cc1ccc(O)cc1)C(N)=O)[C@@H](C)O)C(C)C
B6: Compound 131 (peptide)
peptide: Isovaleryl-APEK([AEEA-AEEA-γGlu-C18 diacid])AEEDASPEELQRYYVELRHYYNWLTRQRY-NH2
SMILES: CC(C)CC(=O)N[C@@H](C)C(=O)N1CCC[C@H]1C(=O)N[C@@H](CCC(=O)O)C(=O)N[C@@H](CCCCNC(=O)COCCOCCNC(=O)COCCOCCNC(=O)CC[C@H](NC(=O)CCCCCCCCCCCCCCCCC(=O)O)C(=O)O)C(=O)N[C@@H](C)C(=O)N[C@@H](CCC(=O)O)C(=O)N[C@@H](CCC(=O)O)C(=O)N[C@@H](CC(=O)O)C(=O)N[C@@H](C)C(=O)N[C@@H](CO)C(=O)N1CCC[C@H]1C(=O)N[C@@H](CCC(=O)O)C(=O)N[C@@H](CCC(=O)O)C(=O)N[C@@H](CC(C)C)C(=O)N[C@@H](CCC(N)=O)C(=O)N[C@@H](CCCNC(=N)N)C(=O)N[C@@H](Cc1ccc(O)cc1)C(=O)N[C@@H](Cc1ccc(O)cc1)C(=O)N[C@H](C(=O)N[C@@H](CCC(=O)O)C(=O)N[C@@H](CC(C)C)C(=O)N[C@@H](CCCNC(=N)N)C(=O)N[C@@H](Cc1c[nH]cn1)C(=O)N[C@@H](Cc1ccc(O)cc1)C(=O)N[C@@H](Cc1ccc(O)cc1)C(=O)N[C@@H](CC(N)=O)C(=O)N[C@@H](Cc1c[nH]c2ccccc12)C(=O)N[C@@H](CC(C)C)C(=O)N[C@H](C(=O)N[C@@H](CCCNC(=N)N)C(=O)N[C@@H](CCC(N)=O)C(=O)N[C@@H](CCCNC(=N)N)C(=O)N[C@@H](Cc1ccc(O)cc1)C(N)=O)[C@@H](C)O)C(C)C

Target: T1, human neuropeptide Y2 receptor
Test: radioligand competition (125I-PYY(1-36)), hNPY2R membranes
Outline: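 Commercial human Y2 receptor membranes (0.5 μg protein/well) were incubated with peptide for 2 h at room temperature in 50 mM HEPES, 5 mM MgCl₂, 1 mM CaCl₂, pH 7.4, with 0.2% ovalbumin. Bound radioligand was separated on PEI-soaked GF/C filters and counted by scintillation, and IC₅₀ came from nonlinear sigmoidal regression.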

| Binder | Ki [nM] |
| --- | --- |
| B1 | 0.5 |
| B2 | 2.31 |
| B3 | 1.18 |
| B4 | 11.1 |
| B5 | 1.18 |
| B6 | 8.54 |
